From publication doi:10.1101/2022.07.31.502239

Target: T1, mmLRRC8A with C-terminal EGFP and HA-tag (Mus musculus), Q80WG5
T1 chain: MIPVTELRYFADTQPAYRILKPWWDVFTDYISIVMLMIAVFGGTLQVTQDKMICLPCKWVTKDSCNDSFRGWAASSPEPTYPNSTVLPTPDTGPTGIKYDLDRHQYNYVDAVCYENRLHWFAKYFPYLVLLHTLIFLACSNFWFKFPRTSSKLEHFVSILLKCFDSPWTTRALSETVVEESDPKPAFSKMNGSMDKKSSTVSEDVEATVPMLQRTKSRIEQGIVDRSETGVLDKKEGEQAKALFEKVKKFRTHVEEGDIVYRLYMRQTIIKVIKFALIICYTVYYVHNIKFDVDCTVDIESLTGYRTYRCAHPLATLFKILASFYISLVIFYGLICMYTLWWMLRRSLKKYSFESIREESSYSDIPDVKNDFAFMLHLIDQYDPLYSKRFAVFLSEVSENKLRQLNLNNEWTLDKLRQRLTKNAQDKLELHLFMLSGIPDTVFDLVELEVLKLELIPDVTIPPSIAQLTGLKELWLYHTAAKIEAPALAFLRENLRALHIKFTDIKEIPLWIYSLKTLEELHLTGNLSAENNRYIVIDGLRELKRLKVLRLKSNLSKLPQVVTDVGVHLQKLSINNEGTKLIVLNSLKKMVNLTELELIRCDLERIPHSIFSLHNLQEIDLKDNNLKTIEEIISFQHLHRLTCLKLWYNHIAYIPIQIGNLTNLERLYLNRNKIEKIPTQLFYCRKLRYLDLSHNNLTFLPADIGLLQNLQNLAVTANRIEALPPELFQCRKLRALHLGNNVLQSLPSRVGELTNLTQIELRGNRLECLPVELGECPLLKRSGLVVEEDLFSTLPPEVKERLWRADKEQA
Test: single molecule pulldown with stepwise photobleaching subunit counting
Settings: remark: other sources report otherwise

stoichiometry N: 6
B1: mmLRRC8A with C-terminal EGFP and HA-tag, Q80WG5 1-810 (natural protein)
chain: MIPVTELRYFADTQPAYRILKPWWDVFTDYISIVMLMIAVFGGTLQVTQDKMICLPCKWVTKDSCNDSFRGWAASSPEPTYPNSTVLPTPDTGPTGIKYDLDRHQYNYVDAVCYENRLHWFAKYFPYLVLLHTLIFLACSNFWFKFPRTSSKLEHFVSILLKCFDSPWTTRALSETVVEESDPKPAFSKMNGSMDKKSSTVSEDVEATVPMLQRTKSRIEQGIVDRSETGVLDKKEGEQAKALFEKVKKFRTHVEEGDIVYRLYMRQTIIKVIKFALIICYTVYYVHNIKFDVDCTVDIESLTGYRTYRCAHPLATLFKILASFYISLVIFYGLICMYTLWWMLRRSLKKYSFESIREESSYSDIPDVKNDFAFMLHLIDQYDPLYSKRFAVFLSEVSENKLRQLNLNNEWTLDKLRQRLTKNAQDKLELHLFMLSGIPDTVFDLVELEVLKLELIPDVTIPPSIAQLTGLKELWLYHTAAKIEAPALAFLRENLRALHIKFTDIKEIPLWIYSLKTLEELHLTGNLSAENNRYIVIDGLRELKRLKVLRLKSNLSKLPQVVTDVGVHLQKLSINNEGTKLIVLNSLKKMVNLTELELIRCDLERIPHSIFSLHNLQEIDLKDNNLKTIEEIISFQHLHRLTCLKLWYNHIAYIPIQIGNLTNLERLYLNRNKIEKIPTQLFYCRKLRYLDLSHNNLTFLPADIGLLQNLQNLAVTANRIEALPPELFQCRKLRALHLGNNVLQSLPSRVGELTNLTQIELRGNRLECLPVELGECPLLKRSGLVVEEDLFSTLPPEVKERLWRADKEQA
